Measured values as given in patent publication US20250289893A1 (OXFORD UNIVERSITY INNOVATION, published 2025).
Substitutions are numbered along the chain they refer to.

B1: 77A (VR11851) (antibody, V domains shown)
VH: QSVEESGGRLVTPGTPLTLTCTVSGFSLSSYAMSWVRQAPGKGLEWIGIISSSGTTYYASWAKGRFTISKTSTTVDLKITSPTTEDTATYFCARVDYYSSGWGGLWGPGTLVTVSS
VL: AVEMTQTPASMSAAVGGTVTIKCQASEDIYSNLAWYQQKPGQPPKLLIYGASTLASGVPSRFKGSGSGTEYTLTISGVQCDDAATYYCQCTYDTSSYGNTFGGGTEMVVE
notes: also called OX77a; antibody 77a
B2: 111 (VR12113) (antibody, V domains shown)
VH: QSVEESGGRLVTPGTPLTLTCTASGFSLSTYAMSWVRQAPGKGLEWIGIISSSGSTYYASWAKGRFTISKTSTTVDLKITSPTTEDTATYFCARETWYWLDLWGQGTLVTVSS
VL: B1 VL with M11V, K22N, T91A, T94S, N99T, T100P, M107V, E110K
notes: also called OX111
B3: 110 (VR12112) (antibody, V domains shown)
VH: QSVEESGGRLVTPGTPLTLTCTVSGFSLSSYAMIWVRQAPGKGLEWIGIINSSDNTHYATWAKGRFTISKTSTTVDLKITSPTTEDTATYFCARDPYDYGYGWYFDLWGPGTLVTVSS
VL: AQVLTQTPSPVSAAVGGTVTINCQASQSVFNNKNLAWYQQKPGQPPKLLIYKASTLASGVSSRFKGSGSGTQFALTISGVQCDDAATYYCQGEFSCSSTDCVTFGGGTEVVVK
notes: also called OX110; antibody 110

Legend:
[1] = target: Cynomolgus monkey CD1a expressed on HEK-293 cells (Cynomolgus monkey, UniProt A0A2K5VQ68 17-326); experiment: flow cytometry, HEK-293 cells, 0.1 µg/ml antibody
Chain of Cynomolgus monkey CD1a expressed on HEK-293 cells (A0A2K5VQ68 entry or part of it): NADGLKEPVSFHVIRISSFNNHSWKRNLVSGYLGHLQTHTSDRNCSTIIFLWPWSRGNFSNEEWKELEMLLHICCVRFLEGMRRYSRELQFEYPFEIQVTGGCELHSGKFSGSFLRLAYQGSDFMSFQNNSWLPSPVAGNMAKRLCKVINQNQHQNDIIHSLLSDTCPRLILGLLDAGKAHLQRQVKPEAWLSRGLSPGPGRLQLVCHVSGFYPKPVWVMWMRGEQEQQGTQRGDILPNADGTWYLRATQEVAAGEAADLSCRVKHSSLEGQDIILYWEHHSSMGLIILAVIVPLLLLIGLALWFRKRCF
Description: (§1) Binding to proteins expressed on HEK, C1R and MOLT4 cell lines was assessed. […] The C1R-CD1a, C1R-empty vector and MOLT4 cell lines were washed in 1×PBS on the day required. All cell lines were counted and resuspended in 1×PBS and then stained for 30 minutes at 37° C. using the DiI or DiO cellular stains (Invitrogen). Cells were washed with flow cytometry buffer (1% bovine serum albumin, 2 mM EDTA and 0.1% sodium azide in PBS) before mixing 2 DiI-stained and DiO-stained populations together. The cells (20 μl/well) were then added to dilutions of antibody sample (B cell culture supernatant, TAP supernatant, clone supernatant, purified antibody solution) (20 μl/well) and incubated for 1 hour at 4° C. in a flow cytometry assay plate, before being washed with flow cytometry buffer. 10 μl/well of Alexafluor647-conjugated goat anti-species IgG Fc-specific F(ab′)2 fragment (Jackson ImmunoResearch), diluted 1:2500 in flow cytometry buffer, was added and incubated at 4° C. for 30 minutes, followed by washing with wash buffer. The fluorescence intensity was then measured on an iQue screener PLUS.
(§2) Binding was quantified as fold change in fluorescence intensity geomean over background assessed by flow cytometry.

[2] = target: Chinese variant CD1a protein (human) (UniProt P06126); experiment: ELISA, 10 µg/ml antibody
Chain of Chinese variant CD1a protein (human) (P06126 18-295, stated change not applied): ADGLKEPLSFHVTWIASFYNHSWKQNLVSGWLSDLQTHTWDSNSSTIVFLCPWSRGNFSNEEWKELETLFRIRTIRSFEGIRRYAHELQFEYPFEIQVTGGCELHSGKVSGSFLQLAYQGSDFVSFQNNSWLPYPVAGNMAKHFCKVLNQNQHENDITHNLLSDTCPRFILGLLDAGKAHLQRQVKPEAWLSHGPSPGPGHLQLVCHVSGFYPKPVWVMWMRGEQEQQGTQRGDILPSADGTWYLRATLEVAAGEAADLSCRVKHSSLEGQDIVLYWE

[3] = target: T1, human CD1a protein (pool B) (human, UniProt P06126 18-295, limits assumed); experiment: SPR (Biacore T200), antibody captured, human CD1a titrated, 1:1 binding model
T1 construct: Recombinant protein of the ELISA (coated) and the Biacore T200 titration; whole entry named; also called human CD1a pool B; full length CD1a
T1 sequence (P06126 18-295 limits assumed): as the sequence (P06126 18-295, stated change not applied) above
Description: The affinity of the purified antibodies to human CD1a was assessed using a Biacore T200 instrument (GE Healthcare) by capturing the antibody to an immobilized anti-species IgG F(ab′)2 followed by titration of human CD1a. Affinipure Goat anti-species IgG-F(ab′)2 fragment specific (Jackson ImmunoResearch) was immobilized on a CM5 Sensor Chip (GE Healthcare) via amine coupling chemistry to a capture level of ˜5000 response units (RUs). HBS-EP+ buffer (10 mM HEPES pH 7.4, 0.15 M NaCl, 3 mM EDTA, 0.05% Surfactant P20, GE Healthcare) was used as the running buffer with a flow rate of 10 μL/min. A 10 μL injection of test antibody at 0.5 μg/mL was used for capture by the immobilized Goat Anti-species Fab.
The surface was regenerated between cycles by injection of 2×10 μL of 40 mM HCl, interspersed by a 10 μL injection of 5 mM NaOH at flowrate of 10 μL/min. Background subtraction binding curves were analyzed using the Biacore T200 evaluation software following standard procedures. Kinetic parameters were determined from the fitting algorithm. This assay was performed at the clone supernatant and purified antibody stage.
Affinity was required to be <100 nM to be considered for progression.

[4] = target: T1, human CD1a protein (pool B); experiment: ELISA, 31.6 µg/ml antibody
Description: (§3) CD1a-specific antibodies were identified by ELISA. […] 20 μl/well of peroxidase-conjugated goat anti-species IgG Fc-specific F(ab′)2 fragment (Jackson ImmunoResearch), diluted 1:5000 in block buffer was added and incubated at room temperature for 1 hour, followed by washing with wash buffer.
(§4) The antibodies were titrated through a dilution series and compared to a control rabbit IgG antibody.

[5] = target: T2, human CD1a expressed on cells (human, UniProt P06126 17-327; P61769 21-119); experiment: flow cytometry, HEK-293 cells, 3.16 µg/ml antibody
T2 construct: also called HEK - CD1a; C1R - CD1a
Description: as §1
(§5) HEK-293 cells were transiently transfected with human CD1a, CD1b, CD1c or CD1d and co-transfected with human β2M.

[6] = target: T3, human CD1c expressed on HEK-293 cells (human, UniProt P29017 18-333; P61769 21-119); experiment: flow cytometry, HEK-293 cells, 3.16 µg/ml antibody
T3 construct: also called HEK - CD1c
Description: as §1, §5

[7] = target: T4, human CD1b expressed on HEK-293 cells (human, UniProt P29016 18-333; P61769 21-119); experiment: flow cytometry, HEK-293 cells, 3.16 µg/ml antibody
T4 construct: also called HEK - CD1b
Description: as §1, §5

[8] = target: T5, human CD1d expressed on HEK-293 cells (human, UniProt P15813 20-335; P61769 21-119); experiment: flow cytometry, HEK-293 cells, 3.16 µg/ml antibody
T5 construct: also called HEK - CD1d
Description: as §1, §5

[9] = target: T3, human CD1c expressed on HEK-293 cells; experiment: flow cytometry, HEK-293 cells
Description: as §1, §5

[10] = target: T4, human CD1b expressed on HEK-293 cells; experiment: flow cytometry, HEK-293 cells
Description: as §1, §5

[11] = target: T5, human CD1d expressed on HEK-293 cells; experiment: flow cytometry, HEK-293 cells
Description: as §1, §5

[12] = target: T1, human CD1a protein (pool B); experiment: ELISA, 3.16 µg/ml antibody
Description: as §3, §4

[13] = target: T2, human CD1a expressed on cells; experiment: flow cytometry, C1R cells, 0.0316 µg/ml antibody
Description: as §1, §2

[14] = target: T2, human CD1a expressed on cells; experiment: flow cytometry, HEK-293 cells, 1 µg/ml antibody
Description: as §1, §5

[15] = target: T3, human CD1c expressed on HEK-293 cells; experiment: flow cytometry, HEK-293 cells, 1 µg/ml antibody
Description: as §1, §5

[16] = target: T4, human CD1b expressed on HEK-293 cells; experiment: flow cytometry, HEK-293 cells, 1 µg/ml antibody
Description: as §1, §5

[17] = target: T5, human CD1d expressed on HEK-293 cells; experiment: flow cytometry, HEK-293 cells, 1 µg/ml antibody
Description: as §1, §5

[18] = target: chimeric CD1a pool B protein [human CD1a lipid binding domain, mouse CD1d Ig domain] (human; mouse, UniProt P06126 18-201; P11609 205-297, limits assumed); experiment: ELISA, 0.1 µg/ml antibody
Chain of chimeric CD1a pool B protein [human CD1a lipid binding domain, mouse CD1d Ig domain] (P06126 other isoform, or with tags, fused parts or gaps mutant limits assumed): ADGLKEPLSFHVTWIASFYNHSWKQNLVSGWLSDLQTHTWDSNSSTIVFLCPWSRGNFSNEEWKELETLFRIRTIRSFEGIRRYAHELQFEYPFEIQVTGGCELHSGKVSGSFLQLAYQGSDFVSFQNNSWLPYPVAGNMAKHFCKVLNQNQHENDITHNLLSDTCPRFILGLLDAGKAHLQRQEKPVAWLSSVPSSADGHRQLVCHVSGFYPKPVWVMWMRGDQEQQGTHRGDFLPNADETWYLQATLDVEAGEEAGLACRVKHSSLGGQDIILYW
Description: as §3
The antibodies were titrated through a dilution series and compared to a control rabbit IgG antibody. […] Data shown for purified antibodies.

[19] = target: T2, human CD1a expressed on cells; experiment: flow cytometry, C1R cells, 31.6 µg/ml antibody
Description: as §1, §2

[20] = target: T2, human CD1a expressed on cells; experiment: flow cytometry, HEK-293 cells, 0.1 µg/ml antibody
Description: as §1, §5

[21] = target: T3, human CD1c expressed on HEK-293 cells; experiment: flow cytometry, HEK-293 cells, 0.1 µg/ml antibody
Description: as §1, §5

[22] = target: T4, human CD1b expressed on HEK-293 cells; experiment: flow cytometry, HEK-293 cells, 0.1 µg/ml antibody
Description: as §1, §5

[23] = target: T5, human CD1d expressed on HEK-293 cells; experiment: flow cytometry, HEK-293 cells, 0.1 µg/ml antibody
Description: as §1, §5

[24] = target: T2, human CD1a expressed on cells; experiment: flow cytometry, C1R cells, 1 µg/ml antibody
Description: as §1, §2

[25] = target: T2, human CD1a expressed on cells; experiment: flow cytometry, MOLT4 cells, 100 µg/ml antibody
Description: CD1a-specific antibodies were identified by flow cytometry. Binding to proteins expressed on HEK, C1R and MOLT4 cell lines was assessed. […] The C1R-CD1a, C1R-empty vector and MOLT4 cell lines were washed in 1×PBS on the day required. All cell lines were counted and resuspended in 1×PBS and then stained for 30 minutes at 37° C. using the DiI or DiO cellular stains (Invitrogen). Cells were washed with flow cytometry buffer (1% bovine serum albumin, 2 mM EDTA and 0.1% sodium azide in PBS) before mixing 2 DiI-stained and DiO-stained populations together. The cells (20 μl/well) were then added to dilutions of antibody sample (B cell culture supernatant, TAP supernatant, clone supernatant, purified antibody solution) (20 μl/well) and incubated for 1 hour at 4° C. in a flow cytometry assay plate, before being washed with flow cytometry buffer. 10 μl/well of Alexafluor647-conjugated goat anti-species IgG Fc-specific F(ab′)2 fragment (Jackson ImmunoResearch), diluted 1:2500 in flow cytometry buffer, was added and incubated at 4° C. for 30 minutes, followed by washing with wash buffer. The fluorescence intensity was then measured on an iQue screener PLUS.
as §2

Binder	Fluorescence Intensity Geomean (normalized to background) [1]	Optical Density (OD) [2]	Kd [3]	Optical Density (OD) [4]	Fluorescence Intensity Geomean (normalized to background) [5]	Fluorescence Intensity Geomean (normalized to background) [6]	Fluorescence Intensity Geomean (normalized to background) [7]	Fluorescence Intensity Geomean (normalized to background) [8]	binding result [9]	binding result [10]	binding result [11]	Optical Density (OD) [12]	Fluorescence Intensity Geomean (normalized to background) [13]	Fluorescence Intensity Geomean (normalized to background) [14]	Fluorescence Intensity Geomean (normalized to background) [15]	Fluorescence Intensity Geomean (normalized to background) [16]	Fluorescence Intensity Geomean (normalized to background) [17]	Optical Density (OD) [18]	Fluorescence Intensity Geomean (normalized to background) [19]	Fluorescence Intensity Geomean (normalized to background) [20]	also measured
B1	5.7 fold over background	0.99 OD	0.24 nM	1.28 OD	23.3 fold over background	0.9 fold over background	0.9 fold over background	0.9 fold over background	no binding (tested: 100 µg/ml (highest tested))	no binding (tested: 100 µg/ml (highest tested))	no binding (tested: 100 µg/ml (highest tested))	1.33 OD	17 fold over background	41.9 fold over background	1 fold over background	1.1 fold over background	1 fold over background	1.25 OD	1.3 fold over background	43.8 fold over background	koff [3]: 0.000113 s⁻¹; kon [3]: 469000 M⁻¹ s⁻¹; Fluorescence Intensity Geomean (normalized to background) [21]: 0.9 fold over background; Fluorescence Intensity Geomean (normalized to background) [22]: 1 fold over background; Fluorescence Intensity Geomean (normalized to background) [23]: 0.9 fold over background; Fluorescence Intensity Geomean (normalized to background) [24]: 10.3 fold over background; Fluorescence Intensity Geomean (normalized to background) [25]: 0.8 fold over background
B2	25.8 fold over background	1.41 OD	≤ 0.0312 nM	1.07 OD	24.9 fold over background	1.1 fold over background	1.1 fold over background	1.1 fold over background	no binding (tested: 100 µg/ml (highest tested))	no binding (tested: 100 µg/ml (highest tested))	no binding (tested: 100 µg/ml (highest tested))	1.13 OD	26 fold over background	42 fold over background	1.1 fold over background	1 fold over background	1.1 fold over background	1.25 OD	7 fold over background	23.1 fold over background	koff [3]: < 1e-05 s⁻¹; kon [3]: 321000 M⁻¹ s⁻¹; Fluorescence Intensity Geomean (normalized to background) [21]: 1 fold over background; Fluorescence Intensity Geomean (normalized to background) [22]: 1 fold over background; Fluorescence Intensity Geomean (normalized to background) [23]: 1 fold over background; Fluorescence Intensity Geomean (normalized to background) [24]: 28 fold over background; Fluorescence Intensity Geomean (normalized to background) [25]: 3.9 fold over background
B3	3.3 fold over background	1.75 OD	1.97 nM	1.24 OD	31.5 fold over background	1.1 fold over background	1.1 fold over background	1 fold over background	no binding (tested: 100 µg/ml (highest tested))	no binding (tested: 100 µg/ml (highest tested))	no binding (tested: 100 µg/ml (highest tested))	1.27 OD	17.1 fold over background	49.2 fold over background	1.1 fold over background	1.1 fold over background	1.1 fold over background	1.02 OD	6.2 fold over background	20.2 fold over background	Fluorescence Intensity Geomean (normalized to background) [21]: 1 fold over background; Fluorescence Intensity Geomean (normalized to background) [22]: 1 fold over background; Fluorescence Intensity Geomean (normalized to background) [23]: 1 fold over background; Fluorescence Intensity Geomean (normalized to background) [24]: 28.2 fold over background; Fluorescence Intensity Geomean (normalized to background) [25]: 5.2 fold over background
